Source: patent US20180237511A1 (Sanofi, published 2018)
Like-named read-outs stand apart in the source and are kept apart here.

How the values were obtained:
[1] = biological target: T1, human laminin G-like 5 domain of laminin-2 (hLG-5) (human, UniProt P24043 2936-3122, soluble biotinylated protein (Avi tag)); assay: SPR (Biacore) kinetics; mAb immobilized, hLG-5 in flow
T1 construct: The construct used for the crystal structure with C21 Fab is not described; the same entry is used; also called human LG-5; human LG5; not shown: N-terminal Avi and HPC4 tags
T1 sequence: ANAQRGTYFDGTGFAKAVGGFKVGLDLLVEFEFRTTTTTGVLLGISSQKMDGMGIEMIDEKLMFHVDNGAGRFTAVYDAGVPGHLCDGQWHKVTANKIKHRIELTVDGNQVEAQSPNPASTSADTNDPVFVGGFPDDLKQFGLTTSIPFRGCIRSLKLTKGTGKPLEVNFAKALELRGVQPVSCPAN

[2] = biological target: murine laminin G-like 5 domain of laminin-2 (mLG-5) (mouse) (UniProt Q60675); assay: SPR (Biacore) kinetics; mAb immobilized, mLG-5 in flow
[3] = biological target: T2, human beta-DG fused to the human hIgG1 Fc antibody region (hbeta-DG-hFc) (human, UniProt Q14118 654-749, limits assumed); assay: double deck sandwich ELISA: plate coated with human LG-4/5, then mAb, then hbeta-DG-hFc, HRP anti-hFc
T2 construct: not shown: human IgG1 Fc region
T2 sequence (looked up): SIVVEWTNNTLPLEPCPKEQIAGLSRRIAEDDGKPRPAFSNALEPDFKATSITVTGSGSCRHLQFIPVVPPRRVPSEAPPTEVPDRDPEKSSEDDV
Method: (§1) 96-well plates were coated with 50 ng human LG-4/5 and blocked with 5% fetal bovine serum in PBS. Each well was incubated with 1 μg of the generated bispecific antibodies (murine IgG backbone). After 2 hours, wells were washed with PBS and re-incubated with 16 ng to 1 μg per well of human beta-DG fused to the human hIgG1 Fc antibody region (hbeta-DG-hFc). After 2 hours, wells were washed with PBS, incubated with a HRP conjugated anti-hFc secondary antibody for 45 minutes, washed again with PBS, and developed for colorimetric measuring.
(§2) Colorimetric signals could be detected only when hLG-4/5 and hbeta-DG-hFc were both added in the assay (FIG. 7). No signal was detected when parental monoclonal antibodies were used or when hbeta-DG-hFc was omitted. Three bispecific antibodies (biAbs), T1T2, T5T6, and C5C6, had the anticipated signal indicating simultaneous binding to both targets. The parental anti-LG4/5 or anti-beta-DG mAbs, or biAbs without beta-DG-hFc in the 2nd step were all negative in this assay.

[4] = biological target: T3, human laminin G-like 4 and 5 domains of laminin-2 (hLG-4/5), soluble (human, UniProt P24043 2729-3122, biotinylated in the ELISA of Example 6); assay: SPR (Biacore) kinetics, antibody as ligand on the chip, hLG4/5 monomer in flow, fit 1:1 Binding
T3 construct: range 2729-3122; also called human LG-4/5; hLG4/LG5; not shown: Avi tag and HPC4 tag left after TEV cleavage of the N-terminal mIgG2a fusion partner
T3 sequence (looked up): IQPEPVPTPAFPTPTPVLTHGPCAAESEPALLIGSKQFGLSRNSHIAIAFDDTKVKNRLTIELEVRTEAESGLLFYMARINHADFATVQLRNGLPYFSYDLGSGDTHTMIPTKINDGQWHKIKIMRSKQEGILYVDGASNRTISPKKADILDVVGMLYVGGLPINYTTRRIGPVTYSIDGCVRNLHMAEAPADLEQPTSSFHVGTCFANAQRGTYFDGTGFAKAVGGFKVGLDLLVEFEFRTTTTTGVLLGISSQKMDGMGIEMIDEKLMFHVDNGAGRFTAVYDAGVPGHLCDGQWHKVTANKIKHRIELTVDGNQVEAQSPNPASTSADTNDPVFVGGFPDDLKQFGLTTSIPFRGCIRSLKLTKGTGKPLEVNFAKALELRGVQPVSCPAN

[5] = biological target: T4, human beta-dystroglycan extracellular domain (soluble) (human, UniProt Q14118 654-749); assay: sequential SPR (Biacore): antibody immobilised on a CM5 chip, human LG-4/5 and then human beta-DG flowed over
T4 construct: extracellular domain; The expression construct of soluble human beta-DG is not described (only the mouse one); also called hBeta-DG; hbeta-DG
T4 sequence (looked up): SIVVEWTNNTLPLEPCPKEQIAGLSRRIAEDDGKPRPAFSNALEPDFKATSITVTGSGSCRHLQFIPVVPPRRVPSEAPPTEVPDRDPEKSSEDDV
Method: Parental monoclonal antibodies (AS19, C3 and C21) and three bispecific antibodies (AS19×C3 and AS30×C3 in TBTI, and AS30×C3 in CODVIg) were each immobilized onto individual CM5 Series S Biacore chips (GE Healthcare). Human or murine LG-4/5, followed in sequence by human or murine beta-DG, was flown over each chip and binding was assessed.
Parental mAbs to LG-4/5 or beta-DG and biAbs of anti-LG4/5 and beta-DG were captured onto biacore chips, and then flowed with human LG4/5 and human beta-DG sequentially to determine their concurrent bindings to both antigens. […] In contrast, parental monoclonal antibodies were only able to bind to one target, either LG-4/5 (C3 and C21 in FIGS. 6A & 6B) or beta-DG (AS19 in FIGS. 6A & 6B).

[6] = biological target: T5, murine laminin G-like 4 and 5 domains of laminin-2 (mLG-4/5), soluble (mouse, UniProt Q60675 2725-3118); assay: SPR (Biacore) kinetics, antibody as ligand on the chip, mLG4/5 monomer in flow, fit 1:1 Binding
T5 construct: range 2725-3118; also called murine LG-4/5; not shown: Avi tag and HPC4 tag left after TEV cleavage of the N-terminal mIgG2a fusion partner
T5 sequence (looked up): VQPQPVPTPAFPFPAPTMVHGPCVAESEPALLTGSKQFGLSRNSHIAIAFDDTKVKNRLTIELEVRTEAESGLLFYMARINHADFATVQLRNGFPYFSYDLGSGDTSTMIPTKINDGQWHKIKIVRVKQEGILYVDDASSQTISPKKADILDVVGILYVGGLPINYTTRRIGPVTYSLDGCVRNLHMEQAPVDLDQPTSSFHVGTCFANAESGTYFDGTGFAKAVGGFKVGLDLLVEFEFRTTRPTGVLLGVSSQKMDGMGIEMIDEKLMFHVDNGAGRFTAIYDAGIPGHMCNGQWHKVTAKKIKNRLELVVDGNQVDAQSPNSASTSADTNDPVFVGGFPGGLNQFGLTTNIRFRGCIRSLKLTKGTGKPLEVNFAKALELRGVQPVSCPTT

[7] = biological target: T5, murine laminin G-like 4 and 5 domains …; assay: as above; remark: listed apart in the source
[8] = biological target: T3, human laminin G-like 4 and 5 domains of …; assay: SPR (Biacore) kinetics, antibody as ligand on the chip, hLG4/5 monomer in flow, fit 1:1 Binding; remark: listed apart in the source
[9] = biological target: T2, human beta-DG fused to the human hIgG1 …; assay: double deck sandwich ELISA: plate coated with human LG-4/5, then biAb, then hbeta-DG-hFc, HRP anti-hFc; a signal needs both bindings at once
Method: as §1, §2

[10] = biological target: T6, murine beta-dystroglycan extracellular domain (mbeta-DG ECD), HPC4 tagged (mouse, UniProt Q62165 652-746); assay: SPR (Biacore) kinetics; mAb immobilized, mBeta-DG in flow
T6 construct: range 652-746; Made in E. coli as MBP fusion; MBP cleaved off with TEV protease; also called mbeta-DG-HPC4; murine beta-DG; not shown: C-terminal HPC4 tag
T6 sequence (looked up): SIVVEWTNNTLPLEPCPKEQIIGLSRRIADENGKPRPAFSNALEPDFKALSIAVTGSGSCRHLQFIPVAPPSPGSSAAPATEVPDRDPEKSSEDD

[11] = biological target: T4, human beta-dystroglycan extracellular …; assay: SPR (Biacore) kinetics; mAb immobilized, hBeta-DG in flow

B1: anti-laminin-2 antibody derived from hybridoma clone C21 (antibody, V domains shown)
VH: EVMLVESGGGLVKPGGSLKLSCAASGFTFSSYTMSWVRQTPEKRLEWVATISSGGDNTYYPDSVKGRFTISRDNAKNNLYLQMSSLRSEDTALYYCARFDYGSSLDCWGQGTTLTVSS
VL: DIVLTQSPATLSVTPGDSVSLSCRASQSISNYLHWYQQKSHESPRLLIKYASQSISGIPSRFSGSGSGTDFTLSINSVETEDFGMYFCQQSKSWPRTFGGGTELEIK
notes: Hybridoma monoclonal antibody (detected with anti-mouse IgG); also called anti-laminin-2(C21)
With B1 the Kd [1] was 2.8 nM, the koff [1] was 0.00131 s⁻¹ and the kon [1] was 467000 M⁻¹ s⁻¹. The Kd [2] was 3.04 nM, the koff [2] was 0.00253 s⁻¹ and the kon [2] was 813000 M⁻¹ s⁻¹. For the same binder, the binding result [3] was “no binding (tested: 1000 ng/ml)”, the Kd [4] was 2.8 nM and the koff [4] was 0.00131 s⁻¹. The kon [4] was 467000 M⁻¹ s⁻¹, the binding result [5] was “no binding” and the Kd [6] was 3.04 nM. For the same binder, the koff [6] was 0.00253 s⁻¹ and the kon [6] was 813000 M⁻¹ s⁻¹.

B2: anti-laminin-2 antibody derived from hybridoma clone C3 (antibody, V domains shown)
VH: DVMLVESGGDLVKPGGSLKLSCAASGFTFSSYTMSWVRQTPEKRLEWVASISSGGGNTYYPDSVKGRFTISRDNAKNNLYLQMSSLRSEDTALYYCARFDYGSSLDSWGQGTTLTVSS
VL: DIVLTQSPATLSVTPGDSVSLSCRASQSISNNLHWYQQKSHESPRLLIKYASQSISGIPSRFSGSGSGTDFTLSINSVETEDFGMYFCQQSKNWPRTFGGGTKLEIK
notes: Hybridoma monoclonal antibody (detected with anti-mouse IgG); also called C03; anti-laminin-2(C3)
B2 gave a Kd [1] of 2.66 nM, a koff [1] of 0.0013 s⁻¹ and a kon [1] of 488000 M⁻¹ s⁻¹. It also gave a koff [7] of 0.00429 s⁻¹, a kon [7] of 519000 M⁻¹ s⁻¹ and a koff [8] of 0.0013 s⁻¹. For the same binder, the kon [8] was 488000 M⁻¹ s⁻¹, the Kd [2] was 8.27 nM and the koff [2] was 0.00429 s⁻¹. For the same binder, the kon [2] was 519000 M⁻¹ s⁻¹, the binding result [3] was “no binding (tested: 1000 ng/ml)” and the binding result [5] was “no binding”.

B3: bispecific antibody T1T2: anti-beta-DG(AS19) x anti-laminin-2(C3), TBTI with (GGGGS)2 linker (bispecific antibody)
heavy: QVQLQQSGPELVKPGASVKMSCKASGFTFTDSVISWVKQRTGQGLEWIGEIYPGSGSIYYNEKFKGKATLTADKSSNTAYMQLRSLTSEDSAVYFCAMRRSYWGQGTLVTVSAGGGGSGGGGSDVMLVESGGDLVKPGGSLKLSCAASGFTFSSYTMSWVRQTPEKRLEWVASISSGGGNTYYPDSVKGRFTISRDNAKNNLYLQMSSLRSEDTALYYCARFDYGSSLDSWGQGTTLTVSS
light: DVLMTQTPLSLPVSLGDQASISCRSSQSIVHSNGNTYLEWYLQKPGQSPKLLIYKVSNRFSGVPDRFSGSGSGTDFTLKISRVEAEDLGVYYCFQGSHVPLTFGAGTKLELKGGGGSGGGGSDIVLTQSPATLSVTPGDSVSLSCRASQSISNNLHWYQQKSHESPRLLIKYASQSISGIPSRFSGSGSGTDFTLSINSVETEDFGMYFCQQSKNWPRTFGGGTKLEIK
notes: also called AS19xC3 in TBTI; biAb (AS19xC3); not shown: IgG1 heavy chain constant region: murine IgG1 (GenBank AAA75163.1) or human IgG1 (Genbank Q569F4); murine IgG backbone i; kappa light chain constant region: murine kappa chain (Genbank BAB33404) or human kappa chain (Genbank Q502W4)
B3: binds [9]; binds [5].

B4: anti-beta-DG antibody derived from phage display clone B04 (antibody, V domains shown)
VH: QVQLQQSGGGLVQPGGSLRLSCAASGFTFSSYAMSWVRQAPGKGLEWVSAISGSGGSTYYADSVKGRFTVSRDNSKNTLYLQMNSLRAEDTAVYYCARLGYCSSTSCYLSAFDIWGQGTMVTVSS
VL: EIVLTQSPSTLSASVGDRVTITCRASQSISSWLAWYQQKPGKAPKLLIYDASSLESGVPSRFSGSGSGTEFTLTISSLQPDDFATYYCQQYNSYPLTFGGGTKVEIK
notes: Phage display clone
B4 gave a Kd [10] of 25.7 nM, a koff [10] of 0.0016 s⁻¹ and a kon [10] of 62000 M⁻¹ s⁻¹. The koff [11] was 0.0016 s⁻¹ and the kon [11] was 62000 M⁻¹ s⁻¹.
